From paper doi:10.1101/2023.01.30.526200, “The virus-encoded ion channel “viroporin” activity of the agnoprotein is required for BK Polyomavirus release from infected kidney cells” (bioRxiv, 2023)
Where “and” joins values, the source holds several entries; their conditions need not be identical. Equal values may be shown once.

Target: the molecule itself
Assay: SDS-PAGE (SDS-resistant oligomers); increasing concentrations of purified His-BKPyV agnoprotein on SDS PAGE, probed with anti-agnoprotein or anti-His antibody; oligomerisation concentration dependent

B1: recombinant 10xHis BKPyV agnoprotein (natural protein)
chain: MVLRQLSRQASVKVGKTWTGTKKRAQRIFIFILELLLEFCRGEDSVDGKNKSTTALPAVKDSVKDS
notes: agnoprotein of BK polyomavirus, DNA codon optimised for E. coli, amplified with primers from the ATG to the stop codon and cloned into pET19b (KpnI/BamHI); also called 10xHis BK agnoprotein; recombinant agnoprotein; source: E. coli DE3 gold, purified (NiNTA, HiTrap SP ion exchange, C4 solid phase extraction; dissolved in DMSO); not shown: His10, N-terminal, kept
- stoichiometry N: 2 and 4 and 5
